Reference: article PMC5431456

What was measured:
[1] = molecular target: Subtilase cytotoxin B subunit (SubB), wild type (Escherichia coli) (UniProt Q6EZC3); test: SPR; Biacore T100; SubB or SubB mutant immobilised on a series S CM5 chip (flow cell 1 blank); AGP flowed over, 0.01-100 µM in range finding; single cycle kinetics
[2] = molecular target: SubB S106A/T107A (Escherichia coli) (UniProt Q6EZC3); test: SPR
[3] = molecular target: SubB ΔS106/ΔT107 (Escherichia coli) (UniProt Q6EZC3); test: SPR
[4] = molecular target: SubB ΔS106/ΔT107/E108D (Escherichia coli) (UniProt Q6EZC3); test: SPR

human α1-acid glycoprotein (AGP) (from UniProt P02763 19-201) (natural protein)
Kd [1]: 2120 nM | Kd [2]: 723 nM | Kd [3]: 1650 nM | Kd [4]: 2820 nM
